The values that follow come from patent publication US20090123479A1 (published 2009).

The target in test [1] is T1, recombinant human IL-23 (human, UniProt Q9NPF7 20-189; P29460 23-328).
T1 construct: also called hIL-23
T1 sequence 1: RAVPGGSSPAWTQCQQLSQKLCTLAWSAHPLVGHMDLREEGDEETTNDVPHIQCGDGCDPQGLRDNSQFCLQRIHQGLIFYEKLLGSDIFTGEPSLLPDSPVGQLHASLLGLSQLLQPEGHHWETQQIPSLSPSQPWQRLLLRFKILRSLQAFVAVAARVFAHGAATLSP
T1 sequence 2: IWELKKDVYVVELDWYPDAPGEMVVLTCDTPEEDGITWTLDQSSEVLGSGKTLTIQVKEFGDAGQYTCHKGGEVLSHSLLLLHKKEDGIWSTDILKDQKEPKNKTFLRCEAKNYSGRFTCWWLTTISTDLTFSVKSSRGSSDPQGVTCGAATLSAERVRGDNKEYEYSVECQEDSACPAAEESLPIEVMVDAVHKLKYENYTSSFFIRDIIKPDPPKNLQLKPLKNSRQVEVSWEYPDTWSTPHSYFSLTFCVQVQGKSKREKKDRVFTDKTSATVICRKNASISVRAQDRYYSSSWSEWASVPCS
In words: SPR (Biacore T100), purified antibody captured on anti-human IgG, IL-23 analyte, 1:1 model. The protocol: Biacore analysis was carried out using a capture surface on a CM5 chip. Anti-human IgG (BR-1008-39) was used as the capturing agent. Anti-human IgG was coupled to a CM5 biosensor chip by primary amine coupling. Humanized antibody was captured on this immobilised surface and defined concentrations of IL-23 were passed over this captured surface. An injection of buffer over the captured antibody surface was used for double-referencing. […] T100 Biacore machine was used to generate the data; all runs were carried out at 25° C. using HBS EP. Data was analysed using the software inherent to the machine and fitted to the 1:1 model of binding. Tables 7 and 8 detail the IL-23 binding analysis carried out on the 8C92H6.HC1LC1 chimera and selected humanized variants in two separate experiments. Data presented in Tables 7 and 8 are from purified antibody samples. The data shown for the humanized variants is representative of a number of runs. The chimeric mAb (8C9H6.HC1LC1) was only run once in each experiment, so data shown for this mAb is from that one run.
On the technique in general: SPR reads the build-up and loss of mass on a sensor chip optically.

Test [2] addresses T1, recombinant human IL-23. The test can be described thus: IL-23/IL-23R inhibition ELISA (optimised protocol, OD450): plate coated with human IL23R Fc chimera, antibody pre-incubated with constant human IL-23, bound IL-23 detected with biotinylated anti-human IL-12; purified antibody. On the procedure:
(§1) Optimised protocol: Plates were coated with human IL23R Fc chimera at […] (phosphate buffered saline). 50 μl/well of this mixture was incubated overnight at 4° C. The plates were then washed three times with Phosphate Buffered Saline with 0.05% Tween 20 (PBST). Plates were blocked with 4% skim milk powder (Fluka BioChemika #70166) PBST 100 μl/well for a minimum of 1 hour at room temperature. The plates were then washed three times with Phosphate Buffered Saline+0.05% Tween 20 (PBST). Various concentrations of antibody were incubated in a separate plate with a constant concentration of IL-23 for 1 hour at room temperature. 50 ul of each mixture were transferred to the assay plate and incubated at RT for 1 hr. They were then washed three times with Phosphate Buffered Saline+0.05% Tween 20 (PBST). Bound IL23 was detected by anti human 1L12 Biotin labelled Ab (R&D systems BAF219) diluted to 100 ng/ml in 4% skim milk powder (Fluka BioChemika #70166) PBST. 50 μl/well of the biotinylated antibody was added and incubated at RT for 1 hour. The plates were then washed three times with Phosphate Buffered Saline+0.05% Tween 20 (PBST). SA HRP (GE healthcare RPN4401) was diluted 1/4000 in 4% skim m ilk powder (Fluka BioChemika #70166) PBS, 50 μl/well was added to the plates. The plates were then washed three times with Phosphate Buffered Saline+0.05% Tween 20 (PBST). 50 ul/well of TMB was added to the plates and incubated at RT for 15 min. 25 μl/well of 3 MH₂SO₄ was added to the wells already containing TMB. The plate was read at OD450 nm using the SOftmaxPRO versamax plate reader.

Test [3] deals with T1, recombinant human IL-23. The test can be described thus: SPR (Biacore 3000), CHO supernatant antibody captured on Protein A or anti-human IgG, IL-23 analyte at 256, 64, 16, 4 nM.
In test [4] the target is T1, recombinant human IL-23. In words: SPR (Biacore T100), CHO supernatant antibody captured on Protein A or anti-human IgG, IL-23 analyte at 256, 64, 16, 4, 1 nM.
Test [5] addresses T1, recombinant human IL-23. The test can be described thus: sandwich ELISA (optimised protocol, OD450): plate coated with anti-human IL-12, antibody pre-incubated with constant human IL-23, bound antibody detected with anti-human IgG gamma chain HRP; purified antibody. The protocol: Optimised assay conditions: Plates were coated with anti human IL12 at 2 μg/diluent (phosphate buffered saline). 50 μl/well of this mixture was incubated overnight at 4° C. The plates were then washed three times with Phosphate Buffered Saline with 0.05% Tween 20 (PBST). Plates were blocked with 4% skim milk powder (Fluka BioChemika #70166) PBS 200 μl/well for a minimum of 1 hour at room temperature. The plates were then washed three times with Phosphate Buffered Saline+0.05% Tween 20 (PBST). Various concentrations of antibody were incubated in a separate plate with a constant concentration of IL-23 for 1 hour at room temperature. 50 ul of each mixture were transferred to the assay plate and incubated at RT for 1 hr. They were then washed three times with Phosphate Buffered Saline+0.05% Tween 20 (PBST). […] 50 μl/well of the detection antibody was added and incubated at RT for 1 hour. The plates were then washed three times with Phosphate Buffered Saline+0.05% Tween 20 (PBST). 50 μl/well of TMB was added to the plates and incubated at RT for 10 min. 50 μl/well of 1 MH₂SO₄ was added. The plate was read at OD450 nm using the SOftmaxPRO versamax plate reader.
For orientation: ELISA stands for enzyme-linked immunosorbent assay.

The target of test [6] is T2, recombinant cynomologus IL-23 (cynomolgus, limits assumed).
T2 construct: also called cynomolgus IL-23; cyno IL23
T2 chain 1: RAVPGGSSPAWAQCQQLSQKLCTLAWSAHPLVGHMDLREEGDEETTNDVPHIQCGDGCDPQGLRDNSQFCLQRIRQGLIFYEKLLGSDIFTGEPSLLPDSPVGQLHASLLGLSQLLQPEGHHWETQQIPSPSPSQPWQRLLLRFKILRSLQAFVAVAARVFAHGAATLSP
T2 chain 2: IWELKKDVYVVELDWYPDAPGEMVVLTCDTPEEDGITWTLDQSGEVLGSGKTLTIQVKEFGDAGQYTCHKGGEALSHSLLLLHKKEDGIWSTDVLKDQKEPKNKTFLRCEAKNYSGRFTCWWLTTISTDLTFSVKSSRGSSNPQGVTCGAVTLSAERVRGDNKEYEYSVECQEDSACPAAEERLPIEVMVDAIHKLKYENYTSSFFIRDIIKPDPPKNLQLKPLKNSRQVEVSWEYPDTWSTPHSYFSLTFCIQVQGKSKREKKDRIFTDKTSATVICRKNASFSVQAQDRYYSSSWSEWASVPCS
The test can be described thus: IL-23/IL-23R inhibition ELISA (optimised protocol, OD450): plate coated with human IL23R Fc chimera, antibody pre-incubated with constant cynomolgus IL-23, bound IL-23 detected with biotinylated anti-human IL-12; purified antibody. The protocol:
as §1

A word on the Kd: it is the concentration at which binding is half-saturated. What is called koff is the first-order rate constant of dissociation. A word on the kon: it is the second-order rate constant of association. Broadly, the EC50 (read off the curve) is the concentration that produces a half-maximal response.

B1: A5M0 (antibody, human IgG1, kappa, V domains shown)
VH: QVQLVQSGAEVKKPGSSVKVSCKASGYTFTSYGITWVRQAPGQGLEWMGENYPRSGNTYYNEKFKGRVTITADKSTSTAYMELSSLRSEDTAVYYCARAEFISTVVAPYYYALDYWGQGTLVTVSS
VL: DIVMTQSPDSLAVSLGERATINCKASKKVTIFGSISALHWYQQKPGQPPKLIYNGAKLESGVPDRFSGSGSGTDFTLTISSLQAEDVAVYYCLQNKEVPYTFGGGTKVEIKR
notes: Full length chains
For B1, in test [1], the Kd turned out to be 0.103 nM, the koff was found to be 0.000171 s⁻¹ and the on-rate (kon) amounted to 1.65e+06 M⁻¹ s⁻¹. Further, in test [2], the “IC50 (read off the curve)” value was roughly 0.2 nM.

B2: A3N1 (antibody, human IgG1, kappa, V domains shown)
VH: QVQLVQSGAEVKKPGSSVKVSCKASGYTFTSYGITWVRQAPGQGLEWMGENYPRSGNTYYNEKFKGRVTITADKSTSTAYMELSSLRSEDTAVYYCARSEFISTVVAPYYYALDYWGQGTLVTVSS
VL: DIVMTQTPLSLSVTPGQPASISCKASKKVTIFGSISALHWYLQKPGQPPQLIYNGAKLESGVSDRFSDSGSQNRSPFGNQLSFTLKISRVEAEDVGVYYCLQNKEVPYTFGGGTKVEIKR
notes: Full length chains
For B2, in test [3], the Kd turned out to be 2.3 nM, the koff is 0.00039 s⁻¹ and the association rate constant (kon) amounted to 170000 M⁻¹ s⁻¹. In test [4], the Kd was 4.1 nM, the koff was determined as 0.00035 s⁻¹ and the kon stood at 84000 M⁻¹ s⁻¹. Further, the “EC50 (read off the curve)” value in test [5] was roughly 0.04 nM. In addition, the “IC50 (read off the curve)” value in test [2] is roughly 1 nM. Besides, in test [6], the “IC50 (read off the curve)” value was roughly 0.9 nM.

B3: A3N2 (antibody, human IgG1, kappa, V domains shown)
VH: QVQLVQSGAEVKKPGSSVKVSCKASGYTFTSYGITWVRQAPGQGLEWMGENYPRSGNTYYNEKFKGRVTITADKSTSTAYMELSSLRSEDTAVYYCARSEFISTVVAPYYYALDYWGQGTLVTVSS
VL: DIVMTQTPLSLSVTPGQPASISCKASKKVTIFGSISALHWYLQKPGQPPQLIYNGAKLESGVSDRFSDSGSGTDFTLKISRVEAEDVGVYYCLQNKEVPYTFGGGTKVEIKR
notes: Full length chains
With B3, the results for the Kd in test [3] and in test [4] were 1.5 nM and 1.6 nM, respectively. Further, the values for the koff in test [3] and in test [4] were 0.00041 s⁻¹ and 0.00038 s⁻¹, respectively. For the same molecule, the kon worked out at 280000 M⁻¹ s⁻¹ in test [3] and 240000 M⁻¹ s⁻¹ in test [4]. For the same molecule, the “EC50 (read off the curve)” value in test [5] is roughly 0.04 nM. Further, the “IC50 (read off the curve)” value in test [2] is roughly 0.8 nM; in test [6], roughly 1 nM.

B4: A7M3 (antibody, human IgG1, kappa, V domains shown)
VH: QVQLVQSGAEVKKPGSSVKVSCKASGYTFTSYGITWVRQAPGQGLEWMGEDYPRSGNTYYNEKFKGRVTITADKSTSTAYMELSSLRSEDTAVYYCARSEFISTVVAPYYYALDYWGQGTLVTVSS
VL: DIVMTQSPDSLAVSLGERATINCKASKKVTIFGSTSALHWYQQKPGQPPKLIYNGAKLESGVPDRFSGSGSGTDFTLTISSLQAEDVAVYYCLQNKEVPYTFGGGTKVEIKR
notes: Full length chains
With B4, in test [1], the Kd came to 0.144 nM, the koff was 0.000145 s⁻¹ and the kon turned out to be 1.01e+06 M⁻¹ s⁻¹. The “IC50 (read off the curve)” value in test [2] was roughly 0.2 nM.

B5: A6M0 (antibody, human IgG1, kappa, V domains shown)
VH: QVQLVQSGAEVKKPGSSVKVSCKASGYTFTSYGITWVRQAPGQGLEWMGENYPRSGNTYYNEKFKGRVTITADKSTSTAYMELSSLRSEDTAVYYCARVEFISTVVAPYYYALDYWGQGTLVTVSS
VL: DIVMTQSPDSLAVSLGERATINCKASKKVTIFGSISALHWYQQKPGQPPKLIYNGAKLESGVPDRFSGSGSGTDFTLTISSLQAEDVAVYYCLQNKEVPYTFGGGTKVEIKR
notes: Full length chains
B5: in test [1], the Kd amounted to 0.101 nM, the koff was 0.000298 s⁻¹ and the kon came out at 2.95e+06 M⁻¹ s⁻¹. The “IC50 (read off the curve)” value in test [2] was roughly 0.2 nM.

B6: A8M3 (antibody, V domains shown)
VH: QVQLVQSGAEVKKPGSSVKVSCKASGYTFTSYGITWVRQAPGQGLEWMGEDYPRSGNTYYNEKFKGRVTITADKSTSTAYMELSSLRSEDTAVYYCARAEFISTVVAPYYYALDYWGQGTLVTVSS
VL: DIVMTQSPDSLAVSLGERATINCKASKKVTIFGSTSALHWYQQKPGQPPKLIYNGAKLESGVPDRFSGSGSGTDFTLTISSLQAEDVAVYYCLQNKEVPYTFGGGTKVEIK
Consider B6, for which, in test [1], the Kd came out at 0.08 nM, the off-rate (koff) is 0.000135 s⁻¹ and the on-rate constant (kon) turned out to be 1.67e+06 M⁻¹ s⁻¹. Also, the “IC50 (read off the curve)” value in test [2] was roughly 0.2 nM.

B7: A9M3 (antibody, V domains shown)
VH: QVQLVQSGAEVKKPGSSVKVSCKASGYTFTSYGITWVRQAPGQGLEWMGEDYPRSGNTYYNEKFKGRVTITADKSTSTAYMELSSLRSEDTAVYYCARVEFISTVVAPYYYALDYWGQGTLVTVSS
VL: DIVMTQSPDSLAVSLGERATINCKASKKVTIFGSTSALHWYQQKPGQPPKLIYNGAKLESGVPDRFSGSGSGTDFTLTISSLQAEDVAVYYCLQNKEVPYTFGGGTKVEIK
On to B7, for which, in test [1], the equilibrium dissociation constant (Kd) worked out at 0.065 nM, the koff is 0.000171 s⁻¹ and the kon came out at 2.64e+06 M⁻¹ s⁻¹. Also, the “IC50 (read off the curve)” value in test [2] was roughly 0.1 nM.
